Data taken from patent US20190389961A1 (INNATE PHARMA, published 2019).
Positions count from the first letter of the chain named. Each block holds one binder with its values, some of them ahead of it.

How the values were obtained:
[1] = target: T1, human CD39 mutant 5 (human, UniProt P49961 1-510); assay: flow cytometry, Hek-293T cells expressing the mutant
T1 construct: Expressed on Hek-293T cells; also called M5
T1 chain: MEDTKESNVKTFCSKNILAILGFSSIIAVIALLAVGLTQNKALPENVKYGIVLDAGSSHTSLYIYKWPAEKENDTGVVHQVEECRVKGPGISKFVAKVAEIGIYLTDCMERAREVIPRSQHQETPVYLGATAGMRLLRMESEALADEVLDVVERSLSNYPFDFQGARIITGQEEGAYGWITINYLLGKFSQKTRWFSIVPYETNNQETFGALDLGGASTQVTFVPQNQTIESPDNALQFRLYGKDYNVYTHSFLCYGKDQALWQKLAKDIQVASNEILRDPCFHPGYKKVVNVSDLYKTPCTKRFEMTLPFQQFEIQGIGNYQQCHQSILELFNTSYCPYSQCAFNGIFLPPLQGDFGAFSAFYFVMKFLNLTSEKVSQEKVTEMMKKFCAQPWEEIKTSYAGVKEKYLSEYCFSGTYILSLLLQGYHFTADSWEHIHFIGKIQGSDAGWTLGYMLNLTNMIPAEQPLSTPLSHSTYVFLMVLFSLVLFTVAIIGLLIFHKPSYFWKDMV
Description: (§1) In order to define the epitopes of the further anti-CD39 antibodies of Example 5, they were tested for loss of binding to the panel of CD39 mutants as described in Example 1 and Table 1. Mutants were transfected in Hek-293T cells, as shown in the table 1, using numbering of SEQ ID NO: 1.Dose-ranges of test antibodies (10-2.5-0.625-0.1563-0.0391-0.0098-0.0024-0.0006 μg/ml) are tested on the 20 generated mutants by flow cytometry.

[2] = target: T2, human CD39 mutant 19 (human, UniProt P49961 1-510); assay: as above
T2 construct: Expressed on Hek-293T cells; also called M19
T2 chain: T1 chain with A96Q, A99N, R138A, M139A, E142K, A143E, E147R
Description: as §1

[3] = target: T3, human CD39 mutant 15 (human, UniProt P49961 1-510); assay: as above
T3 construct: Expressed on Hek-293T cells; also called M15
T3 chain: T1 chain with K87A, A96Q, A99N, E100A, D107A, A143E, E147R
Description: as §1

[4] = target: T4, human CD39 mutant 11 (human, UniProt P49961 1-510); assay: as above
T4 construct: Expressed on Hek-293T cells
T4 sequence: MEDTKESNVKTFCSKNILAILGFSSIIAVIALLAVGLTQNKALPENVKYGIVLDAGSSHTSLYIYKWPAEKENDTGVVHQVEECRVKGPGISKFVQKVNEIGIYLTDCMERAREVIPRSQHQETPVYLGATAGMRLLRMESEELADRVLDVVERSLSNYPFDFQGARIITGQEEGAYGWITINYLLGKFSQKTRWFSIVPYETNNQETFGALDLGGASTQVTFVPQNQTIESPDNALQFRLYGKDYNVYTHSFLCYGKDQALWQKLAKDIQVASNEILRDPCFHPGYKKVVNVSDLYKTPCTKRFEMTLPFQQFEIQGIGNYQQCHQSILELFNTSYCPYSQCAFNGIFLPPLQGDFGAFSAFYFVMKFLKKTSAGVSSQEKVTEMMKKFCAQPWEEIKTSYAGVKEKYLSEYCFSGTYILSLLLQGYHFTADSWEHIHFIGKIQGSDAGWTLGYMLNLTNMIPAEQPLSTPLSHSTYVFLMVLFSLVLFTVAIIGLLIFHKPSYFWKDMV
Description: as §1

[5] = target: T3, human CD39 mutant 15; assay: flow cytometry on Hek-293T cells expressing CD39 mutant 15 (panel M15)
Description: as §1

[6] = target: T2, human CD39 mutant 19; assay: flow cytometry on Hek-293T cells expressing CD39 mutant 19 (panel M19); unstained (US) median 8,98; antibody concentration not shown
Description: (§2) Mutants were transfected in Hek-293T cells, as shown in the table 1, using numbering of SEQ ID NO: 1. […] Mutant 19 includes substitutions at residues R138, M139 and E142.
as §1

[7] = target: T5, human CD39 (vascular CD39, NTPDase1) expressed at the surface of cells (human, UniProt P49961 1-510); assay: flow cytometry on Hek-293T cells expressing wild-type CD39 (panel WT); unstained (US) median 10,3; antibody concentration not shown
T5 construct: also called huCD39; CHO-huCD39
T5 sequence: T1 chain with A96Q, A99N, A143E, E147R
Description: as §2, §1

[8] = target: T1, human CD39 mutant 5; assay: flow cytometry on Hek-293T cells expressing CD39 mutant 5 (panel M5); unstained (US) median 8,98; antibody concentration not shown
Description: as §2, §1

[9] = target: T3, human CD39 mutant 15; assay: flow cytometry on Hek-293T cells expressing CD39 mutant 15 (panel M15); unstained (US) median 8,98; antibody concentration not shown
Description: as §2, §1

[10] = target: T2, human CD39 mutant 19; assay: flow cytometry on Hek-293T cells expressing CD39 mutant 19 (panel M19)
Description: as §2, §1

[11] = target: T1, human CD39 mutant 5; assay: flow cytometry on Hek-293T cells expressing CD39 mutant 5 (panel M5)
Description: as §1

binding result [1]: binds | binding result [2]: binds | binding result [3]: binds
B1: antibody I-399 (antibody, V domains shown)
VH: PVQLQQPGAEVVMPGASVKLSCKASGYTFTSFWMNWMRQRPGQGLEWIGEIDPSDFYTNSNQRFKGKATLTVDKSSSTAYMQLSSLTSEDSAVYFCARGDFGWYFDVWGTGTSVTVSS
VL: EIVLTQSPTTMTSSPGEKITFTCSASSSINSNYLHWYQQKPGFSPKLLIYRTSNLASGVPTRFSGSGSGTSYSLTIGTMEAEDVATYYCQQGSSLPRTFGGGTKLEIK
binding result [4]: no binding (tested: dose range up to 10 µg/ml)

binding result [5]: no binding | Median : Comp-Alexa Fluor 647-A [6]: 8890 | Median : Comp-Alexa Fluor 647-A [7]: 4340 | Median : Comp-Alexa Fluor 647-A [8]: 8190 | Median : Comp-Alexa Fluor 647-A [9]: 35.9
B2: antibody I-396 (antibody, V domains shown)
VH: EVQLQQSGAELVKPGASVKLSCIVSGFNIKDTYINWVKQRPEQGLEWIGRIDPANGNTKYDPKFQGKATMTSDTSSNTAYLHLSSLTSDDSAVYYCARWGYDDEEADYFDSWGQGTTLTVSS
VL: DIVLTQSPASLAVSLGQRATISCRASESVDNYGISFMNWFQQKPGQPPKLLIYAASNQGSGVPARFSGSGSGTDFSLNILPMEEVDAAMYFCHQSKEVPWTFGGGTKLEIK

Median : Comp-Alexa Fluor 647-A [6]: 15.4 | Median : Comp-Alexa Fluor 647-A [7]: 4240 | Median : Comp-Alexa Fluor 647-A [8]: 52.6 | Median : Comp-Alexa Fluor 647-A [9]: 5750 | binding result [10]: no binding | binding result [11]: no binding
B3: antibody I-395 (antibody, V domains shown)
VH: EVQLQQSGPELVKPGASVRMSCKASGYTFTDYNMHWVKKNHGKGLEWIGYINPNNGGTTYNQKFKGKATLTVNTSSKTAYMELRSLTSEDSAVYYCTRGGTRFASWGQGTLVTVSA
VL: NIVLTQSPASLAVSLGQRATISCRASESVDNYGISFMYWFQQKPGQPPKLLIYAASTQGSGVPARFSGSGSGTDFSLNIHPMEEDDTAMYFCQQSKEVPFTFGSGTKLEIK
